Source: patent publication US20220056140A1 (INVECTYS, published 2022)

What was measured:
[1] = biological target: T1, HLA-G5 recombinant protein (without β2M association) (human, UniProt P17693-5 25-319); experiment: flow cytometry titration on β2M-free HLA-G5 coated Bioplex beads
T1 construct: domain: α1α2α3 domains of HLA-G5; No β2M; Coupled to Bioplex beads; also called hβ2M-free HLA-G5; recombinant HLA-G5 protein

[2] = biological target: T2, Control peptide; experiment: flow cytometry on Bioplex beads coated with the mutated peptide, PE-conjugated goat anti-mouse antibody
T2 peptide: CTHHPVADAEATLRC

[3] = biological target: HLA-G6 recombinant protein (without β2M association) (human, UniProt P17693 25-227); experiment: flow cytometry titration on HLA-G6 coated Bioplex beads

B1: anti-HLA-G monoclonal antibody 15E7 (antibody, V domains shown)
VH: QVQLQQPGAELVRPGSSVKLSCKASGYTFTDYWMDWVKQRPGQGLEWIGTIYPSDSSTHYNQEFKGKATMTVDKSSSTAYMHLSSLTSEDSAVYYCAREGLAGVFYFDYWGQGTTLTVSS
VL: DVLMTQIPFSLPVSLGDQASISCRSSQSIVHRSGNTYLEWYLQKPGQSPKLLIYKVSNRFSGVPDRFSGSGSGTDFTLKISRVEAEDLGVYYCFQGSHLPPTFGGTTLEIK
notes: also called 15E7 mAb; 15E7 Mab
For B1, which EC50 [1] is on record?
The EC50 was 0.028 µg/mL.

Does B1 bind [2]?
Result: no binding (tested: 250 ng/ml)

What about the EC50 [3] of the same binder?
Its EC50 is 0.12 µg/mL.
